These results are taken from US10407503B2, “Fully human antibodies and fragments recognizing human c-Met” (THE REGENTS OF THE UNIVERSITY OF CALIFORNIA, priority 2012, dated 2019).

B1: F11 ScFv antibody: human anti-c-Met ScFv comprising SEQ ID NO:29; tested as phage-displayed clone (protein)
scFv: QVQLQESGGGLLQPGGSLRLSCAASRFTFSNYAMSWVRQAPGKGLEWVSAISGSGASTYYADSVKGRFTISRDNSKNTLYLQMNSLRAEDTAVYYCSNLYGDYDYWGQGTLVTVSSGGGGGSGGGGSGGGGSQSVLTQPASVSGSPGQSITISCTGTSSDVGGYNYVSWYQQHPGKAPKLMIYDVSNRPSGVSNRFSGSKSGNTASLTISGLQAEDEADYYCSSYTSSSTLLFGGGTKLTVLG
modifications: phage-displayed; synthetic F11 ScFv sequence
B2: E9 ScFv antibody: human anti-c-Met ScFv comprising SEQ ID NO:27; tested as phage-displayed clone (protein)
scFv: QVQLQESGGGVVQPGRSLRLSCAASGFTFSSYGMHWVRQAPGKGLEWVSAIGSSGGSTHDADTVKGRFTISRDNAKNSLYLQMNSLRAEDTAVYYCARDRARGFDYWGQGTLVTVSSGGGGGSGGGGSGGGGSEIVLTQSPSTLSASIGDRVTITCRASQGISSYLAWYQQKPGKAPKLLIYGASSLQSGVPSRFSGRGSGADFTLTISSLQPEDFATYYCQQLISYPLTFGGGTKVEIKR
modifications: phage-displayed; synthetic E9 ScFv sequence
B3: C2 ScFv antibody: human anti-c-Met ScFv comprising SEQ ID NO:26; tested as phage-displayed clone (protein)
scFv: QVQLQESGGGLVQPGGSLRLSCAASGFTFSSYAMSWVRQAPGKGLEWVSAISGSGGSTYYADSVKGRFTISRDNSKNTLYLQMNSLRAEDTAVYYCASQHVGEQSRYFDYWGQGTLVTVSSGGGGGSGGGGSGGGGSDIVMTQSPSSLSASIGDRVTITCRASHSISSYVNWYQKKPGKAPNLLIYAASYLPRGVPSRFSGSGLGTDFTLTISNLQPEDFATYYCQESYSTPYSFGQGTKVDIKR
modifications: phage-displayed; synthetic C2 ScFv sequence
B4: G1 ScFv antibody: human anti-c-Met ScFv comprising SEQ ID NO:30; tested as phage-displayed clone (protein)
scFv: QVQLQESGGGVVQPGGSLRLSCAASGFTFSSYSMNWVRQAPGKGLEWVSSISSSSSYIYYADSVKGRFTISRDNAKNSLYLQMNSLRAEDTAVYYCARDLPSDDYGDYDYYYYGMDVWGQGTTVTVSSGGGGGSGGGGSGGGGSQSVLTQPPSASGTPGQRVTLFCSGSSSNIASNSVKWYQQPPQRAPKLLMFSDDQRPSGVPVRFSASKSGTSASLAISGLQSEDEADYYCAAWDDSLNAEVFGGGTKVTVLG
modifications: phage-displayed; synthetic G1 ScFv sequence
B5: H5 ScFv antibody: human anti-c-Met ScFv comprising SEQ ID NO:32; tested as phage-displayed clone (protein)
scFv: QVQLQESGGGLVQPGGSLRLSCAASGFTFSNYAMSWVRQAPGKGLEWVSAISGSGGSTYYADSVKGRFTISRDNSKNTLYLQMNSLRAEDTAVYYCAKDRFRAAAYWGQGTLVTVSSGGGGGSGGGGSGGGGSQSVLTQPPSVSAAPGQKVTISCTGSSSNIGAGYDVHWYQQLPGTAPKLLIYGNSNRPSGVPDRFSGSKSGTSASLAISGLQSEDEADYYCAAWDDILNGEIFGGGTKVTVLG
modifications: phage-displayed; synthetic H5 ScFv sequence
B6: F1 ScFv antibody: human anti-c-Met ScFv comprising SEQ ID NO:28; tested as phage-displayed clone (protein)
scFv: QVQLVQSGAEVKKPGASVKVSCKASGYTFTDYYMHWVRQAPGEGLEWMGWMNPNSGGTNYAQKFQGRVTMTRDTSISTAYMELSRLRSDDTAVYYCARSHYWDSWSPGTLVTVSSGGGGGSGGGGSGGGGSSALTQPASVSGSPGQSITISCTGTSGDVGGYNYVSWYQQHPGKAPKLMIYDVSNRPSGVSNRFSGSKSGNTASLTISGLQAEDEADYYCTSYAGSRNLVFGGGTKLTVLG
modifications: phage-displayed; synthetic F1 ScFv sequence
B7: F11 ScFv antibody (phage-displayed) (scFv)
scFv: QVQLQESGGGLLQPGGSLRLSCAASRFTFSNYAMSWVRQAPGKGLEWVSAISGSGASTYYADSVKGRFTISRDNSKNTLYLQMNSLRAEDTAVYYCSNLYGDYDYWGQGTLVTVSSGGGGGSGGGGSGGGGSQSVLTQPASVSGSPGQSITISCTGTSSDVGGYNYVSWYQQHPGKAPKLMIYDVSNRPSGVSNRFSGSKSGNTASLTISGLQAEDEADYYCSSYTSSSTLLFGGGTKLTVLG
notes: The fusion to the phage coat protein is not described
B8: E9 ScFv antibody (phage-displayed) (scFv)
scFv: QVQLQESGGGVVQPGRSLRLSCAASGFTFSSYGMHWVRQAPGKGLEWVSAIGSSGGSTHDADTVKGRFTISRDNAKNSLYLQMNSLRAEDTAVYYCARDRARGFDYWGQGTLVTVSSGGGGGSGGGGSGGGGSEIVLTQSPSTLSASIGDRVTITCRASQGISSYLAWYQQKPGKAPKLLIYGASSLQSGVPSRFSGRGSGADFTLTISSLQPEDFATYYCQQLISYPLTFGGGTKVEIKR
notes: as for B7
B9: C2 ScFv antibody (phage-displayed) (scFv)
scFv: QVQLQESGGGLVQPGGSLRLSCAASGFTFSSYAMSWVRQAPGKGLEWVSAISGSGGSTYYADSVKGRFTISRDNSKNTLYLQMNSLRAEDTAVYYCASQHVGEQSRYFDYWGQGTLVTVSSGGGGGSGGGGSGGGGSDIVMTQSPSSLSASIGDRVTITCRASHSISSYVNWYQKKPGKAPNLLIYAASYLPRGVPSRFSGSGLGTDFTLTISNLQPEDFATYYCQESYSTPYSFGQGTKVDIKR
notes: as for B7
B10: G1 ScFv antibody (phage-displayed) (scFv)
scFv: QVQLQESGGGVVQPGGSLRLSCAASGFTFSSYSMNWVRQAPGKGLEWVSSISSSSSYIYYADSVKGRFTISRDNAKNSLYLQMNSLRAEDTAVYYCARDLPSDDYGDYDYYYYGMDVWGQGTTVTVSSGGGGGSGGGGSGGGGSQSVLTQPPSASGTPGQRVTLFCSGSSSNIASNSVKWYQQPPQRAPKLLMFSDDQRPSGVPVRFSASKSGTSASLAISGLQSEDEADYYCAAWDDSLNAEVFGGGTKVTVLG
notes: as for B7
B11: H5 ScFv antibody (phage-displayed) (scFv)
scFv: QVQLQESGGGLVQPGGSLRLSCAASGFTFSNYAMSWVRQAPGKGLEWVSAISGSGGSTYYADSVKGRFTISRDNSKNTLYLQMNSLRAEDTAVYYCAKDRFRAAAYWGQGTLVTVSSGGGGGSGGGGSGGGGSQSVLTQPPSVSAAPGQKVTISCTGSSSNIGAGYDVHWYQQLPGTAPKLLIYGNSNRPSGVPDRFSGSKSGTSASLAISGLQSEDEADYYCAAWDDILNGEIFGGGTKVTVLG
notes: as for B7

The target of one test is T1, cell surface MET (Homo sapiens, UniProt P08581).
T1 construct: endogenous in cells; host or cells: Hcc827 or Hcc827-GR6
T1 sequence (P08581 25-1390): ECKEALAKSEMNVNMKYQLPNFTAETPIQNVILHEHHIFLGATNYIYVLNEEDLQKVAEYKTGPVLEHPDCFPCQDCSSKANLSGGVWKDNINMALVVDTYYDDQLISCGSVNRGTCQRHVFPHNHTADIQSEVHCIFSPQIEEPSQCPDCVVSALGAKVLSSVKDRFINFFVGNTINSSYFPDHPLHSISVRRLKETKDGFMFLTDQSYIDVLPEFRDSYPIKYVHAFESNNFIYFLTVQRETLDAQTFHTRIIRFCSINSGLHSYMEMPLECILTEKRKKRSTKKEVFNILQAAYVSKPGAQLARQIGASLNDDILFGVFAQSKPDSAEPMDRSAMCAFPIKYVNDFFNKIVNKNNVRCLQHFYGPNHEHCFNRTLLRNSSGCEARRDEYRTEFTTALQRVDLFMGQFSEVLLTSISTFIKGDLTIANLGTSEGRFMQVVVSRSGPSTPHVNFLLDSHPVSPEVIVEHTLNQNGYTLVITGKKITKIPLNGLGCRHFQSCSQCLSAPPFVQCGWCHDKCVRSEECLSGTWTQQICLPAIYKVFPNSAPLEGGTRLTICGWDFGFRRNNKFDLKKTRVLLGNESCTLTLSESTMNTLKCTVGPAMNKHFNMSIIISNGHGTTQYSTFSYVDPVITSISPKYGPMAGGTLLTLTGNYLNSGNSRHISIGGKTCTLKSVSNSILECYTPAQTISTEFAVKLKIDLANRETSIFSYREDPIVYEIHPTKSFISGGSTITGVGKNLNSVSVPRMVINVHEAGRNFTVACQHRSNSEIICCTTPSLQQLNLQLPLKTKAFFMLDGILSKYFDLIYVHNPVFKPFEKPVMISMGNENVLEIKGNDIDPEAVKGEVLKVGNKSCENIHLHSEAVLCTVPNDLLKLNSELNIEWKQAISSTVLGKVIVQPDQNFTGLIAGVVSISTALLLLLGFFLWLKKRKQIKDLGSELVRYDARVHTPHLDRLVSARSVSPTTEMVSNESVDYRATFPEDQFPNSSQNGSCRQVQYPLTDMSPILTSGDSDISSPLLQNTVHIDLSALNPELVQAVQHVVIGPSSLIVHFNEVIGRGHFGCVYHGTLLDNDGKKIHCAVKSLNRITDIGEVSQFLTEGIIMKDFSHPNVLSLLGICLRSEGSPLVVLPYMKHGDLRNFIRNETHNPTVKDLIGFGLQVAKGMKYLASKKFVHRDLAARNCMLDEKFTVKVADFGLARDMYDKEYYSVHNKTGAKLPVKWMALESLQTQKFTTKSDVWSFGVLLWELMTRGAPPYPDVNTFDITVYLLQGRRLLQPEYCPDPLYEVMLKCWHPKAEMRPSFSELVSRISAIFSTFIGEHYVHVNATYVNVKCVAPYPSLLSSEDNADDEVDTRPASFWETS
As to the kind of experiment: Phage flow cytometry for binding to c-MET expressing cells. Particulars: phage antibodies; Hcc827 or Hcc827-GR6 cells; FITC anti-M13 detection. The method, then:
(§1) For phage antibodies, flow cytometry was used to confirm their binding to c-MET expressing cells. Bacteria culture containing phage was concentrated 30 times into PBS according to published method (Antibody Engineering Methods and Protocols, Benny K. C. Lo). 2˜5×105 c-MET positive Hcc827 or Hcc827-GR6 cells (Engelman et. al, Science, 2007) were incubated with 100 ul concentrated phage and 30 ul 4% milk-PBS on ice for 1 hour. Cells were then washed using flow buffer (PBS, 1% FBS, 2 mM EDTA), and the binding phage antibodies were detected by FITC conjugated anti-M13 monoclonal antibody (Santa Cruz Biotechnology, Cat# sc-53005 Fitc).
93 clones were randomly picked after 3 rounds of panning. The phage-containing supernatant was used for phage ELISA. Top 64 clones with highest A405 signal were sequenced, among which 19 distinctive clones with different sequences were identified. These distinctive clones were then tested for binding to cell surface MET by phage flow experiments. 8 of these clones show good binding to cell surface MET and were selected for the subsequent purification and characterizations.
(Flow cytometry measures light scatter and fluorescence of single cells or particles in a stream.)
For the molecule B1, the “binding to cell surface MET” value is “can bind to cell surface MET”.

As to B2, the “binding to cell surface MET” value is listed as “can bind to cell surface MET”.

For the molecule B3, the “binding to cell surface MET” value was “can bind to cell surface MET”.

Take B4: the “binding to cell surface MET” value is “can bind to cell surface MET”.

With B5, the “binding to cell surface MET” value is recorded as “can bind to cell surface MET”.

On to B6, for which the “binding to cell surface MET” value was “can bind to cell surface MET”.

Another test deals with T2, c-MET on the surface of Hcc827 or Hcc827-GR6 cells (human, UniProt P08581 25-1390).
T2 construct: whole, on cells; The cells express the receptor endogenously, and MET is amplified in Hcc827-GR6; also called cell surface MET
T2 sequence (P08581 25-1390): as above
As to the kind of experiment: phage flow cytometry on Hcc827-GR6 cells, bound phage detected with FITC anti-M13 antibody.
Conditions: not given
The method, then: as §1, with “$2 \sim 5 \times 10^5$” for “2˜5×105”
B7: the binding result is “binds”.

For the molecule B8, the binding result is “binds”.

B9: the binding result is “binds”.

Take B10: the binding result is given as “binds”.

For B11, the binding result was “binds”.
